This is an account of results in paper PMC12797016.

Values joined by “and” are separate entries in the source; they are usually repeats but may differ in a detail not shown here. Equal values may be shown once.

Assay [1] has as its target LC8 (dynein light chain, DYNLL1/DYNLL2) (Homo sapiens) (UniProt P63167). Kind of assay: ITC. The following applies: cited from earlier work.
Assay [2] shares this target. Kind of assay: ITC. The following applies: cited from earlier work. This is another data set of the same source.
Assay [3] shares this target. Briefly: ITC. The following applies: cited from earlier work. The source holds these as a separate data set.
Assay [4] shares this target. Kind of assay: ITC. The following applies: cited from earlier work. This is another data set of the same source.
Assay [5] has the same target. Kind of assay: ITC. The settings on record: cited from earlier work. The source holds these as a separate data set.
The target is the same in assay [6]. Kind of assay: ITC. The following applies: cited from earlier work. The source holds these as a separate data set.
Assay [7] shares this target. Kind of assay: ITC. The settings on record: cited from earlier work. This is another data set of the same source.
Assay [8] shares this target. Kind of assay: ITC. The following applies: cited from earlier work. The source holds these as a separate data set.
The target is the same in assay [9]. Briefly: ITC. The following applies: cited from earlier work. The source holds these as a separate data set.
Assay [10] shares this target. Briefly: ITC. The settings on record: cited from earlier work. This is another data set of the same source.
Assay [11] has the same target. Briefly: ITC. The settings on record: cited from earlier work. The source holds these as a separate data set.
The target is the same in assay [12]. Briefly: ITC. The following applies: cited from earlier work. This is another data set of the same source.
The target is the same in assay [13]. Briefly: ITC. The following applies: cited from earlier work. The source holds these as a separate data set.
Assay [14] shares this target. Kind of assay: ITC. The following applies: cited from earlier work. The source holds these as a separate data set.
For assay [15] the target is unchanged. Briefly: ITC. The following applies: cited from earlier work. This is another data set of the same source.
Assay [16] shares this target. Briefly: ITC. The following applies: cited from earlier work. The source holds these as a separate data set.
The target is the same in assay [17]. Briefly: ITC. The following applies: cited from earlier work. The source holds these as a separate data set.
Assay [18] has the same target. Briefly: ITC. The settings on record: cited from earlier work. This is another data set of the same source.
In assay [19] the target is rGKAP_(655–711), LC8-binding segment of Rattus norvegicus guanylate kinase-associated protein (GKAP), His tag removed (Rattus norvegicus) (UniProt P97836). Kind of assay: dynamic light scattering; particle size of GKAP, LC8 dimer and their complex at 20 °C; W130i DLS device.
Assay [20] deals with 6xHis-tagged rGKAP_(655–711) (Rattus norvegicus) (UniProt P97836). Briefly: BLI; 6xHis-tagged rGKAP655-711 immobilised on Ni-NTA biosensors (5 ug/mL, 90 s); LC8 dimers 3.125-50 uM, association and dissociation 90 s each; kinetic buffer 50 mM sodium phosphate, 20 mM NaCl, pH 6.0, 20 mM imidazole, 0.1% BSA, 0.02% Tween 20, 0.02% NaN3; sensors hydrated at 25 °C; global fit; BLItz. In general terms: In BLI a coated tip is dipped into the sample, and binding shifts an interference pattern.

Assay [21] concerns the target LC8 (dynein light chain, DYNLL1/DYNLL2) (Homo sapiens) (UniProt P63167). Briefly: ITC. The following applies: cited from earlier work. The source holds these as a separate data set.
For assay [22] the target is unchanged. Kind of assay: ITC. The settings on record: cited from earlier work. This is another data set of the same source.

A word on the Kd: it is the constant that tells how readily two partners part at equilibrium. The koff is the first-order rate constant of dissociation. Read a low koff as slow dissociation. A word on the kon: it is the rate constant with which the complex forms. A high value points to faster complex formation.

Chain of UniProt P63167 (P63167 whole entry): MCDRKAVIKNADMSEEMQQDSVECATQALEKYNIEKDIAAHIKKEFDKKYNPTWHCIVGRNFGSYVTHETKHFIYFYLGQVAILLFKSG

53BP1: the figures for the Kd in [1], in assay [2] and in assay [3] were 1 µM, 0.62 µM and 5.2 µM, respectively. As for AKAP9, in assay [1], the Kd is 12.4 µM. On to ALMS1, for which, in [1], the Kd was 19.2 µM.

Turning to AMOT, the dissociation constant (Kd) in assay [1] was 1.2 µM. AMOTL1: the Kd in assay [1] was 1.55 µM. With AMOTL2, the Kd in assay [1] was 1.98 µM. For the substance ASCIZ, the Kd in assay [1] is 20 µM; in [4], 15 µM; in [5] it was 36 µM; in [6], 9.3 µM; in assay [7], 15 µM; in assay [8] it was 7 µM. Besides, the dissociation constant Kd in assay [9] is 10 µM; in assay [10] it was 14 µM; in assay [11] it was 11 µM. For Bim, the dissociation constant Kd in [1] was 0.52 µM. As for CDK5RAP2, the equilibrium dissociation constant (Kd) in assay [1] is 12.5 µM. CEP152: the Kd in assay [1] is 2.37 µM. Turning to CFAP91, the Kd in assay [1] is 0.55 µM. EML3: in assay [1], the Kd is 0.05 µM. For the substance GKAP, the Kd in assay [1] is 2.4 µM. For the substance IC, in assay [1], the Kd was 3 µM. Take IQUB: the Kd in assay [1] was 3.57 µM. Consider Kib1, for which the dissociation constant Kd in assay [1] was 0.45 µM. Regarding Kib2, in [1], the Kd is 4 µM. With L-MAG, the Kd in assay [1] is 7.3 µM. Regarding LCA5, in [1], the equilibrium dissociation constant (Kd) is 2.6 µM and 8.1 µM. On to MAP4, for which, in [1], the Kd is 4.42 µM. For the substance Myosin Va, the dissociation constant (Kd) in [1] is 8.85 µM.

Regarding NEK9, the dissociation constant (Kd) in [1] is 0.16 µM.

For the substance NUP159, the equilibrium dissociation constant (Kd) in [1] is 1 µM. As to OFD1, the Kd in assay [1] was 12.5 µM and 12.8 µM. For the substance Pak1, the Kd in [1] was 42.7 µM. As for Restv, the Kd in assay [1] is 62.1 µM. On to SAO-1, for which the Kd in assay [1] and in assay [12] was 0.5 µM each time. Consider Sudv, for which the Kd in [1] was 6.45 µM. On to Swa, for which the Kd in assay [1] was 0.62 µM. For WWC1, the Kd in assay [1] is 4 µM; in assay [13], 0.45 µM. In the case of WWC2, the figures for the Kd in assay [1] and in assay [14] were 32.7 µM and 17.6 µM, respectively.

WWC3: the equilibrium dissociation constant (Kd) was 3.5 µM in assay [15] and 5.34 µM in assay [1].

With ana2, the results for the dissociation constant (Kd) in assay [1] and in [16] were 12.8 µM and 1.14 µM, respectively. As for bmf, the Kd in assay [1] is 0.79 µM. In the case of dyn intermediate chain (ICTL), the Kd is 0.5 µM in [1], 8 µM in assay [17] and 8 µM in assay [18]. Regarding “dynein light chain LC8 (DYNLL2, DLC2), Rattus norvegicus, dimer (natural protein)”, in assay [19], the stoichiometry N (LC8 dimers per GKAP segment (2 : 2)) was determined as 1. In assay [20], this substance came in with a dissociation constant (Kd) of 0.29 µM, a koff of 0.0025 s⁻¹ and an association rate constant (kon) of 8800 M⁻¹ s⁻¹. Regarding myosin Va, the Kd in [1] was 9 µM.

With nNOS, in assay [1], the Kd is 5.41 µM and 7 µM.

As to protein panoramix, the dissociation constant Kd in assay [1] was 0.14 µM; in assay [21] it was 0.075 µM. For vp35 virus, the Kd in assay [1] and in [22] was 3.91 µM throughout.
